Data reported in US20020197702A1.

Tests used:
Experiment in all cases: cell-based or functional assay
[1] = target: T1, 697 Bcl-2 HM (caspase-1 treated) caspase (human) (UniProt P42574)
T1 sequence 1: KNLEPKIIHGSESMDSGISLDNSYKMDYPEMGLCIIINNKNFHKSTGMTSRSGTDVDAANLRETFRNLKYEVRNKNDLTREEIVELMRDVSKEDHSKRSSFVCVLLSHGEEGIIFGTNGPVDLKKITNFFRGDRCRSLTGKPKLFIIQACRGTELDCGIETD
T1 sequence 2: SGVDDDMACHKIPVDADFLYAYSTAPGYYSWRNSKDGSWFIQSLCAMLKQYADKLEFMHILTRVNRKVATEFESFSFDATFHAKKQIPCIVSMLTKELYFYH

[2] = target: T2, 697-neo HM (caspase-1 treated) caspase (human) (UniProt P42574)
T2 sequence 1: T1 sequence 1
T2 sequence 2: T1 sequence 2

[3] = target: 697-neo HM (spontaneous activity) caspase (human) (UniProt P42574)
[4] = target: affinity purified membrane derived caspase-3 from 697 cell heavy membranes (human) (UniProt P42574)
[5] = target: r-caspase-3 (His)6 (human) (UniProt P42574)

Row | Substance | IC50, inhibition of DEVD-amc cleavage [1] [nM] | IC50, inhibition of DEVD-amc cleavage [2] [nM] | IC50, inhibition of DEVD-amc cleavage [3] [nM] | IC50, inhibition of DEVD-AMC cleavage activity [4] [nM] | IC50, inhibition of DEVD-AMC cleavage activity [5] [nM]
1 | YVAD-ald (peptide) | > 10000 | > 10000 | > 10000 |  | 
2 | Protein p35 (early p35 protein from Autographa californica nuclear polyhedrosis virus) (from UniProt P08160 1-299) |  |  |  | 0.074 | 0.041
